Assay results published in article PMC4787601.

Molecular target: phospholamban peptide, first 21 amino acids, wild type (UniProt P26678)
Experiment: SPR

Sequence of UniProt P26678 (P26678 1-21): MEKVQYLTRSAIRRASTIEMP

Substance: purified AKAP7γ (from UniProt Q9P0M2 1-348) (natural protein)
- Kd: 13.3 nM
